What all share (test): competitive binding assay (PROMEGA-GLO 2)
One test addresses T1, caspase-6 (UniProt P55212 24-179; P55212 194-293, limits assumed).
T1 sequence (looked up) 1: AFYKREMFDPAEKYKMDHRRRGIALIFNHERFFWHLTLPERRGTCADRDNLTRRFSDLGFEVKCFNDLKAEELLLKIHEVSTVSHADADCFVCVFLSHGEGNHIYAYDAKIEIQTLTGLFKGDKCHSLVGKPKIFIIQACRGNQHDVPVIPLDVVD
T1 sequence (looked up) 2: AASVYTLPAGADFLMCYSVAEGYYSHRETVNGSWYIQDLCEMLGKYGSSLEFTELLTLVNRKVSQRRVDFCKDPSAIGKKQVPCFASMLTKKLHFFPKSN

The next test deals with T2, caspase-2 (UniProt P42575 170-325; P42575 334-452, limits assumed).
T2 construct: also called recombinant caspase-2
T2 sequence (looked up) 1: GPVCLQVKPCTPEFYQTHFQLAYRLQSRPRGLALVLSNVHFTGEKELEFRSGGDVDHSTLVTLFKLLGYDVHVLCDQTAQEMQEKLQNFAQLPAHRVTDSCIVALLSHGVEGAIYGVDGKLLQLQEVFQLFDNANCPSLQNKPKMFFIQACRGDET
T2 sequence (looked up) 2: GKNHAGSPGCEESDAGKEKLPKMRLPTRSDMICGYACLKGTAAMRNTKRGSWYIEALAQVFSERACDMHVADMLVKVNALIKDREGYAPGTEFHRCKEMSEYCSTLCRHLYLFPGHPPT

Another test concerns the target T3, caspase-3 (UniProt P42574 29-277, limits assumed).
T3 sequence (looked up): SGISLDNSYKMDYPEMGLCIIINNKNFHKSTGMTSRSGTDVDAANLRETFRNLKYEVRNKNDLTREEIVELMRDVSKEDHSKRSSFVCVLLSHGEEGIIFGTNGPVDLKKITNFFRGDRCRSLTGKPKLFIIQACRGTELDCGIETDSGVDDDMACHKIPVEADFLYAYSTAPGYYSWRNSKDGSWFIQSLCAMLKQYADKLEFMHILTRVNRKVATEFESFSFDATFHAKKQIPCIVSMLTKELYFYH

What is called Ki is a measure of affinity in units of concentration, obtained from inhibition or displacement. Read a low Ki as a stronger hold on the target.

B1: Ac-YKPVD-CHO (SEQ ID NO: 1) (peptide)
peptide: Ac-YKPVD-aldehyde
SMILES: CC(=O)N[C@@H](Cc1ccc(O)cc1)C(=O)N[C@@H](CCCCN)C(=O)N1CCC[C@H]1C(=O)N[C@H](C(=O)N[C@H](C=O)CC(=O)O)C(C)C
notes: Designed to mimic the caspase-2 cleavage site of tau; also called parent pentapeptide; Tyr-Lys-Pro-Val-Asp
Regarding B1, the values for the Ki with caspase-6, in the test with caspase-2 and with caspase-3 were 184 µM, 0.2 µM and 19.8 µM, respectively.
